Target: the molecule itself
Assay: cryo-EM structure

B1: full-length chicken STING, cGAMP-bound (natural protein, UniProt E1C7U0 1-379, looked up)
chain: MPQDPSTRSSPARLLIPEPRAGRARHAACVLLAVCFVVLFLSGEPLAPIIRSVCTQLAALQLGVLLKGCCCLAEEIFHLHSRHHGSLWQVLCSCFPPRWYLALLLVGGSAYLDPPEDNGHSPRLALTLSCLCQLLVLALGLQKLSAVEVSELTESSKKNVAHGLAWSYYIGYLKVVLPRLKECMEELSRTNPMLRAHRDTWKLHILVPLGCDIWDDLEKADSNIQYLADLPETILTRAGIKRRVYKHSLYVIRDKDNKLRPCVLEFASPLQTLCAMSQDDCAAFSREQRLEQARLFYRSLRDILGSSKECAGLYRLIAYEEPAEPESHFLSGLILWHLQQQQREEYMVQEELPLGTSSVELSLQVSSSDLPQPLRSDCP
- stoichiometry N: 2

Reference: publication PMC6862768 (Nature, 2019)
